Results as given in patent US20180155415A1 (published 2018).

What was measured:
[1] = target: T1, mouse NGF (m-NGF, Alomone) (mouse, UniProt P01139 122-241); test: SPR (BIAcore 2000), antibody immobilized by amine coupling, m-NGF injected
T1 construct: mature
Protocol: For m-NGF binding, the immobilization of the antibody was of 3000 resonance units (RU) in the experiment of panel A and of 6000 RU in the experiment of panel B. The injected concentrations of the m-NGF are indicated on top of each curve.
(§1) Experiments were performed on CMS5 chips with amine coupling, using a BIAcore 2000 machine. Coupling was performed with a specific kit purchased at BIAcore and the coupling reaction was carried out according to manufacturer's instructions.
(§2) Anti-NGF antibodies were immobilized on chip, while mouse NGF (m-NGF, Alomone) or recombinant mouse proNGF (rm-proNGF) were injected at decreasing concentrations to obtain binding curves.

[2] = target: T2, recombinant mouse proNGF (rm-proNGF) (mouse, UniProt P01139 19-241); test: SPR (BIAcore 2000), antibody immobilized (3000 RU), rm-proNGF injected, kinetic analysis
T2 construct: Pro-form of NGF
T2 sequence (P01139 19-241): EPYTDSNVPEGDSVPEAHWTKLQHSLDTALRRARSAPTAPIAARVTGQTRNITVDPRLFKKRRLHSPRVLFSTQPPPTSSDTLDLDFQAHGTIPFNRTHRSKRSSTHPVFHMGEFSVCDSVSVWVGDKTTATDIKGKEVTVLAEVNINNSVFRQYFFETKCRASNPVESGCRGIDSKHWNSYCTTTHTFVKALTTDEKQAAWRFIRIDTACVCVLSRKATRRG
Protocol: For rm-proNGF binding (panel C), the immobilization of the antibody was of 3000 RU.
as §1, §2

T1 sequence (P01139 122-241): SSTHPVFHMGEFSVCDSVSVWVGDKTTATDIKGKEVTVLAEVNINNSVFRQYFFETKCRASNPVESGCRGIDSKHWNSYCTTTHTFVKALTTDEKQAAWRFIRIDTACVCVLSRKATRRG

B1: αD11 anti-NGF antibody (antibody, V domains shown)
VH: QVQLKESGPGLVQPSQTLSLTCTVSGFSLTNNNVNWVRQATGRGLEWMGGVWAGGATDYNSALKSRLTITRDTSKSQVFLKMHSLQSEDTATYYCARDGGYSSSTLYAMDAWGQGTTVTVSA
VL: DIQMTQSPASLSASLGETVTIECRASEDIYNALAWYQQKPGKSPQLLIYNTDTLHTGVPSRFSGSGSGTQYSLKINSLQSEDVASYFCQHYFHYPRTFGGGTKLELK
notes: Rat monoclonal antibody purified from hybridoma supernatant and immobilized on the chip; The tie to αD11 is indirect; also called alphaD11; aD11
Ka [1]: 3.55e+11 M⁻¹ | Kd [1]: 2.81 pM | Ka [2]: 1.2e+09 M⁻¹ | Kd [2]: 1900 pM
